Measured values published in publication PMC2770665.

Assays:
EcoRII-C = biological target: T1, EcoRII-C (UniProt P14633 183-404); assay: EMSA
T1 sequence: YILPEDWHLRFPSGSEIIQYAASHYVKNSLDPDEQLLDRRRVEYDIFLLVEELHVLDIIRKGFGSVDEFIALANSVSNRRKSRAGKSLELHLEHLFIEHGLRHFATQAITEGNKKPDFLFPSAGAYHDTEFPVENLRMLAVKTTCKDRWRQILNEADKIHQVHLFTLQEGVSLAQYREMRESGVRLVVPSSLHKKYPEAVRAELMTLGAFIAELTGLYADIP

EcoRII-N (His-tagged) = biological target: T2, EcoRII-N (His-tagged) (UniProt P14633 1-180); assay: EMSA
T2 sequence: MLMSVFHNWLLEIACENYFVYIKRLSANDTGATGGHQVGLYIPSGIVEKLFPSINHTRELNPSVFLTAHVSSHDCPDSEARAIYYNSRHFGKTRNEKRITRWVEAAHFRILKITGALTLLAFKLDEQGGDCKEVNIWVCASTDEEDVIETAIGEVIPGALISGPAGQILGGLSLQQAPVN

Binder | binding result (EcoRII-C) | binding result (EcoRII-N (His-tagged))
DM 16-mer (dsDNA, 5-methylcytosine at strand 1 position 7 and strand 2 position 8) DNA 1: CGTAGCCTGGTCGATC DNA 2: GATCGACCAGGCTACG | no binding | –
HM(A) 16-mer (dsDNA, 5-methylcytosine at strand 2 position 8 (second C of CCAGG)) DNA 1: CGTAGCCTGGTCGATC DNA 2: GATCGACCAGGCTACG | – | no binding
HM(T) 16-mer (dsDNA, 5-methylcytosine at strand 1 position 7 (second C of CCTGG)) DNA 1: CGTAGCCTGGTCGATC DNA 2: GATCGACCAGGCTACG | – | no binding
T/2 25-mer (dsDNA, strand 2 position 13 is 2-aminopurine (written A) replacing central A) DNA 1: CGCACGACTTCCTGGAAGAGCACGC DNA 2: GCGTGCTCTTCCAGGAAGTCGTGCG | – | no binding
